Laboratory results as given in IntAct's records for PubMed 18166655.

B1: Caspase drICE (Drosophila melanogaster (Fruit fly)), O01382 (parent)
chain: MDATNNGESADQVGIRVGNPEQPNDHTDALGSVGSGGAGSSGLVAGSSHPYGSGAIGQLANGYSSPSSSYRKNVAKMVTDRHAAEYNMRHKNRGMALIFNHEHFEVPTLKSRAGTNVDCENLTRVLKQLDFEVTVYKDCRYKDILRTIEYAASQNHSDSDCILVAILSHGEMGYIYAKDTQYKLDNIWSFFTANHCPSLAGKPKLFFIQACQGDRLDGGVTMQRSQTETDGDSSMSYKIPVHADFLIAYSTVPGFYSWRNTTRGSWFMQSLCAELAANGKRLDILTLLTFVCQRVAVDFESCTPDTPEMHQQKQIPCITTMLTRILRFSDKQLAPAGRV
partner: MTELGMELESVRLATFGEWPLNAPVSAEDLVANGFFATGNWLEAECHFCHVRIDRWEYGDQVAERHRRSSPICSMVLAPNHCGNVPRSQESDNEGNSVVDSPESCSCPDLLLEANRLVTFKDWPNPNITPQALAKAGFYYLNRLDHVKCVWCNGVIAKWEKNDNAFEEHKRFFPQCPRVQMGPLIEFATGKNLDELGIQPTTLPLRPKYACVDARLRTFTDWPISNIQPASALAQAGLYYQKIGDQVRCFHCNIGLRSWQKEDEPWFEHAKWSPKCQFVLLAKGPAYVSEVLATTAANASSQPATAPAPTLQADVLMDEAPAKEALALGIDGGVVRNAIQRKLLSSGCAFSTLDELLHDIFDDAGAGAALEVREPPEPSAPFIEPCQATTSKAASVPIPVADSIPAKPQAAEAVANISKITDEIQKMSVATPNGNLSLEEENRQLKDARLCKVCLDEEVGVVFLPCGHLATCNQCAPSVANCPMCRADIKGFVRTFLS
B2: Death-associated inhibitor of apoptosis 2 (Drosophila melanogaster (Fruit fly)), Q24307 (parent)
chain: B1 partner
partner: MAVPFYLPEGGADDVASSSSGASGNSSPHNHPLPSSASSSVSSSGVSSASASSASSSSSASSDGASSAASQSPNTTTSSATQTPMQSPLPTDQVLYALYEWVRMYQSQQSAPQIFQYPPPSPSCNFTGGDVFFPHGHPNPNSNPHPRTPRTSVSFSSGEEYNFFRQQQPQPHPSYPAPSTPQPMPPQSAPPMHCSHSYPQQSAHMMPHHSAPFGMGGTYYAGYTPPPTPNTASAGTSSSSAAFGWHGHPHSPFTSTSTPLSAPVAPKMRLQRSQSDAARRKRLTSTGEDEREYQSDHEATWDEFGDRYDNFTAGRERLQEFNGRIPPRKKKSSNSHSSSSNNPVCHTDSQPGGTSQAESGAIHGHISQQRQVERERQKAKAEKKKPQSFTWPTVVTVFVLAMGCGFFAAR
B3: Death-associated inhibitor of apoptosis 2 (Drosophila melanogaster (Fruit fly)), Q24307 (parent)
chain: B1 partner
partner: B1 chain
B4: Death-associated inhibitor of apoptosis 2 (Drosophila melanogaster (Fruit fly)), Q24307 (parent)
chain: B1 partner
partner: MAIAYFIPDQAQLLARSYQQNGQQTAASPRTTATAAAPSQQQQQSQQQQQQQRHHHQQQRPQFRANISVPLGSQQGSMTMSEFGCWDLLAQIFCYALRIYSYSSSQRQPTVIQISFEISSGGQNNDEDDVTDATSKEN
B5: Death-associated inhibitor of apoptosis 2 (Drosophila melanogaster (Fruit fly)), Q24307 (parent)
chain: B1 partner
partner: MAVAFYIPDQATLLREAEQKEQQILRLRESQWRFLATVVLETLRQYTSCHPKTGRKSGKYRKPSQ
B6: Caspase drICE (Drosophila melanogaster (Fruit fly)), O01382 (parent)
chain: B1 chain
partner: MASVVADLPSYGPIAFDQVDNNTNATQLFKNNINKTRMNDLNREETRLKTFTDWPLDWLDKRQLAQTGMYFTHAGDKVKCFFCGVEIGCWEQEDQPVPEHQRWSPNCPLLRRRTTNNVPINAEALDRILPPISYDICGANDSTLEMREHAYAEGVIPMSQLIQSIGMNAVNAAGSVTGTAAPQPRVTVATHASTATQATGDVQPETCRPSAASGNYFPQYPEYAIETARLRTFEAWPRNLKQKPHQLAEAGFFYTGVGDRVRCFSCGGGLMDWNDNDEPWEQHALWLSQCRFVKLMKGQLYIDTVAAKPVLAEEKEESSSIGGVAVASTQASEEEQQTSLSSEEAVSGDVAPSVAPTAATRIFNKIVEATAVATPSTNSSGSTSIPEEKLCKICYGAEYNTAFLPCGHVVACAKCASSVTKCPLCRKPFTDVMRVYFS

Variants of: B1
Settings: with diap2_drome Diap2, Q24307

Variant | effect of a mutation on the interaction
A29V | decreasing interaction strength

Variants of: B2
Settings: with hid_drome hid

Variant | effect of a mutation on the interaction
C149G | with no effect
C46G | with no effect
C149G;C249G | decreasing interaction strength
C249G | with no effect

Variants of: B2
Settings: with hid_drome hid
Remark: another data set of the same source

Variant | effect of a mutation on the interaction
D100E | with no effect

Variants of: B3
Settings: with drice_drome Drice

Variant | effect of a mutation on the interaction
C249G | disrupting interaction strength
D163A | with no effect
D100E | disrupting interaction strength
D263A | disrupting interaction strength
C149G | with no effect

Variants of: B4
Settings: with grim_drome grim

Variant | effect of a mutation on the interaction
C249G | with no effect
C149G;C249G | disrupting interaction strength
C46G | with no effect
C149G | decreasing interaction strength

Variants of: B5
Settings: with rpr_drome rpr

Variant | effect of a mutation on the interaction
C249G | with no effect
C149G;C249G | decreasing interaction strength
C46G | with no effect
C149G | decreasing interaction strength

Variants of: B6
Settings: with diap1_drome Diap1, Q24306

Variant | effect of a mutation on the interaction
C211A | with no effect
